Measurements from the DeepSol protein solubility set.

Assay: soluble on expression in E. coli; label from the status in PepcDB or PDB records

Sequence	soluble on expression in E. coli
MTHSHRRHDISDRIWSLLEGHLPGREGAWGGVATDNRQFINAVFWIIRTGAPWRDLPPDYGGWSNTHRRFIRWRDKGIWEKLLEILIDDPDYEWLIMDASHCKVHPHASGARGGNQDMNRTKGGSTPRYIWPWMRMVCRSESLLHKVPLLIARRLAA	not soluble
MSLRSYDGQLVYNPVEENGVMVGQTVYKMNGSTLANYMKYNYKYDDNKRMIESETLKWNSTKEEWEKDLRINYTYEGKTVTTNYYKWNNKKRAYVLVPEMTVTMDNTNEGHHHHHH	soluble
MSLRHLQSTIHPELDHLDDKIIFQRNAARAIVLDGEDVLLLYTERYHDYTLPGGGIDEGEDVIAGLVRELEEETGAQNIHSIKPFGIFEEFRPWYKDDADVMHMISYCYTCKIDRELGETAYEDYEVKNGMRPVWMNVHEAIAHNEKTMAESPKKGMSIERETFLLHLIAKELLEGHHHHHH	soluble
GPHMVIRAEKMEAVTHLAASISHEIRNPLTAARGFIQLIEEQPLAADKRRQYARIAIEELDRAEAIITDYLTFAKPAPETPEKLNVKLEIERVIDILRPLANMSCVDIQATLAPFSVIGEREKFRQCLLNVMKNAIEAMPNGGTLQVYVSIDNGRVLIRIADTGVGMTKEQLERLGEPYFTTKGVKGTGLGMMVVYRIIESMNGTIRIESEIHKGTTVSIYLPLASSPSSSTISDKEKQLFAAL	soluble
MGGSHHHHHHGMASALKEAMVQAEEAAAEITRKLEKQEKKRLKKEKKRLAALALASSENSSSTPEECEEMSEKPKKKKKQKPQEVPQENGMEDPSISFSKPKKKKSFSKEELMSSDLEETAGSTSIPKRKKSTPKEETVNDPEEAGHRSGSKKKRKFSKEEPVSSGPEEAVGKSSSKKKKKFHKASQED	not soluble
MNGFARRTEQKKQAIKQAVLELLQKIRDPREVTIQEIAKQAHVSPVTIYNYFGSKENLIRETLLDDVVRQVDEYEAFLKQAGSFEEKVKHTIFQEVKLFKEGWTDVMLRWMQEDEEFRRSIELLNETRVLPLVVDMIREAQKKGEVDPRLSIEALLLYLNGWRELSEKIPASLYNERLVEDMVRLFFYGIKGETR	not soluble
MGSDKIHHHHHHMLRGGAPAVRMNAMKIISVNVGQPTALQVGQRTAVSGIRKHPVPGRVQVGEKGLEGDHVLNRRYHGGPDQAVYVYTREDYDHWTELLGRALEPGAFGENVLISGAESAEVRVGERFLLGAVEIEVTAPRLPCSTLGARMEDAGFVKRFKAARRPGFYARVLQSGDIGRGDPVTRTPAPDGAPTIGELFDADFAKSHDPAELRAWLTFPLGKRQRKEVEKWLAKAEG	not soluble
MGHHHHHHSHMEGTYITSEHSYQKPQSFGQDCKSLADPGSSDDDDVSSLEEEQEFHMRSKNSLQYSAKEHGMPEKNPAEGNTVFVYNDKKGTEDPGDSHLQWQLNLLTHIENVQNEVTSRMDLIEKEVDVLESWLDFTGELEPPDPLARLPQLKRHIKQLLIDMGKVQQIATLCSV	not soluble
MSLSENPGATAQILSYNHVLSQLNREKTDVTEAKSLLNTAETSLSSMSTSMNRVNALVLQAINGTSDKDNMSQSAEEIKGLLDVLISVANSEDDGRYVFSGSSTSVKPFTTDKTTGEIIYNGTTENKKFRVTDTLEVEVFHDGSAMTDVFNNIQKIVDAMKSGDKDALSALQETNSKNIEIITNSMTNIGGQKNGVTAYDNVLSSKIVDFSERKSNVEEVNMPEAVSNLNKTSIAYQAALQSSVMVQKLSILNYMEGHHHHHH	soluble
AIAFRHTLSVDPSEQLSQDFADPVTDSGYESDEEAAAAATASLSGEEAALWNLVDPQQRLIFVLDGPAAQTLRVKRTGNLERQVVNIHRLPLERAPTVATSLLAATRPQHLVVALRTIEPHQAAAILTSTSYPSLSNVENASQVLVLANDLVQIDDPLLRPLWSDEGTQQNRIQLRWVETGCIGGITAALLAAGCWLRIPVLALLAVEDDDGPSPATLEALLLAAERFGCFTRADWEIRMPNLRQLLAKRQLLYI	soluble
MSLNSSQIQSVNVELFNVPLDEVLNDAKHGDHTHFELILCTITCTDGTQGVGYTYTGGKGGRAIYSLLNDELKPFLMGKDASCINHLWEEMQYHLHYVGRGGLVSFAISAVDIALWDIHCKVLNQPLWKVAGGCSDRVNCYAGGIDLNFSTEKLLGNIQGYLDCGFEAVKIKVGKEDYREDVARVAAVRNLIGPDAIFMVDANYSLTVNKAIKFAQAIEQYDITWFEEPTIPDDFAGFAHIASKINIPLAMGENLHTIYEFNQAISQAKLGFLQPDASNIGGITGWLTVAQMGYANNLPICSHGMHELHVSLMASQPNAGYLEVHSFPIDRYTTHPLKLENGKAVAPSTPGVGVEFKTELLLPYLVKHSEGHHHHHH	soluble
MATAAVTDDIEEGARKAPALIRYLAEGEYVTRRYVSQGAEMNTGEYADYECVVRDGMPIRDHFTLDVHGFALGRHRSAVADFHDKPTVDALYLDEVEELVTRLCGAARTAAQGWMIRTSADLTERAKQKVQGYQHSGGIQPPAGEAHVDYNEVTGRRAAARVYADRFPDGPGYKRYICFSLWRTFSPGPQDWPLAVCDGRTVRDEETASNTLFVVDEFPVGDALTAPVEGEDQMIAATIFRHRDRHRWWYFSNMAADDVLLFKFQDSDHSVTWRCPHTAFHDTSLPDAKTRSSIEVRCIAFFELEHHHHHH	soluble
MRIFLDANVIADWILLKNKNQDASDPLLTERYRHMAESFKLVEEILKLKEKVSGTSQMAIAEVFGVIYDDAINMKLFREAVPASSWYWFSIRERKALSEDSQQLFLMEPHTSPQGI	not soluble
NSDALVSIQTSKLPKTAYTATDFIKTAQYKYNHIVSNTVYELDLFQNAVSYADFAVLELELNLANNRDQQIFDSFINPAVTAYEKLGNSLGLFSNLQLDQYVDDTHYLLGYPLLKREKTSY	not soluble
MLKRTRSLVCLCLAAAISSPTTYANSIDLPDIGTAAGGTLSIDQELIYGDAYMRMLRASKPIVNDPVINEYIDSLGHRLVANANDVKTPFHFFMIRDRNINAFAFFGGYVALHSGLFLHARSESELASVVAHEIAHVTQRHLARSMEDQARRSPATLAALAGALLLSIASPEAGMAAITAATAGNMQSQINYTRSNEKEADRFGIATLAKAGFDVQAMPRFFGRLADEYRYASKPPPMLLTHPLPEDRVADSRQRAQAYPPMRIAPSIDYHLARARIVARYAGIDGQAALGWFERTQKKASADIMPSFDYGRALVHLDNKRLSQAEPILKKLLAQDPGNPFYLDAMTDLYIEKKQPQKAVELLNSALKRNPQNKVLTINYANALLEANQNDQAVRTLQRYTHDNPEDSNGWQLLSKGYHALGRSDEELAARAEILALRANWNKAIQYYSEASKMAELGSLEQARYDARIDQLMIQRDRFMALQLEHHHHHH	soluble
MGSDKIHHHHHHMKILVGSPVSLEEFETIDLFISWLDVIPDNARFSIVGTSKFFIIGKNGREWKKGYEFGIVDADINIFVVGGDLALYPEVFYIAKENGAKLVVGFCEIQNFIDFNFVKAKFWAHTQETSLASIVLLNFLGKVHNNIYFPLEKTKNQTGVVAEGVAPVFLELKKNFFSSEEAEDV	not soluble
MGSDKIHHHHHHMVKTVNWRDLLEPQTKIRDPLYGYIWVTDDELQIIDTPIFQRLRRVNQLALTKYVYPTAEHSRFVHSLGAMHCATQIFTGILNNTHSYHGIRAIDSANMLRRLRYAALLHDIGHIAFSHAAEKLILNPLQHEHLGQFIIANYSPISSILGEHIKPVISILADSVTQDNRLLHQIISGHLDADRADYLMRDSHACGVKYGEYDFERYMQAFGAINESNELKLFVHERDIFVIESFLVARHHYNMQVPYHRTRMGYDIILGRFLKEFLPKCDDAKLGLTVEEGAYTKVDLQKFEFFDDYSVFNHIKHEARTGNLWANMLLRQGHLCPVYDTTDSVDRGGKVFKKIIRRLKAKNFVEDDDFFQCRKEITASKLISTDEKENSLADTSRETIYVRTKSGKLVDIVKHSNIVRALRPVTIYRIYTSQKRKSEAEAVIADVCRKTQVDRRG	not soluble
MAHHHHHHMDQFIRSRTDWKERVVFRLVWITASRWFGISGLHSQQFYTGAGRDPNLGLARGAEDGEGGSPPRLSVRQDTRAGGCVRHYKVMQDTSTQRKAHESYDCPLGASSGLLECHGAFHKTRCVEARCSNRGGVQFGPTRDPAVGEARRPVRPSPEYCLIFGEIHHNADPGVVASRIDVKRETAEGQ	not soluble
PFKESQARGLLQDNMANSYNGGDFEDGLLNLSKEVFPTDKYLYQDGQFLDKKTINAYLNPKYTKREIDKMSEKDKKDKKANENLGLNPSHEGETNPEKIAEKSPAYLSNILEQDFYGGGDTKGKNIKGMTIGLAMNSVYYYKKEKDGPTFSKKLDDSEVKKQGKQMASEILSRLRENDDLKDIPIHFAIYKQSSEDSITPGEFITQATAEKSQTKLNEWHNINEKSALLPSSTAADYDENLNNNFKQFNDNLQSYFSNFTQAVGKVKFVDKKPQRLVVDLPIDYYGQAETIGITQYVTEQANKYFDKIDNYEIRIKDGNQPRALISKTKDDKEPQVHIYSN	soluble
MSLEPDNQTPLKILVTGASGFVGLRVLTQAQNIGYALVAQSRSQQPYSFEQVLLDITPNTDWERALVGVDCVVHCAARVHQMQETEADALKAYRDVNTQGTLNLAKQAVSAGVKRFIFLSSIKVNGEQTKAGSAFQHDDQHIPSDPYGLSKYEAEQQLLELAAETGLEVVIIRPPLVYGEGVKANFLSMMNWVKKQIPLPLGAVGNMRSLVYLDNLVDLILVCCQHPKAAGEIFLVSDNHDVSLTTLLRTIAQAMQIRPRLLPIPQTGLQWLLRLLGKPELGQRLCGNLQLDIAHTQKTLHWSPPVSFEQGIARTVNFYLSQSSKEGHHHHHH	soluble
MHHHHHHSSGVDLGTENLYFQSNAMTNIQKRFYKGRVALNVLANNIENAKDIFEAAEGYVVVGVLSKDYPTVEEAVTAMKAYGKEIDDAVSIGLGAGDNRQAAVVAEIAKHYPGSHINQVFPSVGATRANLGEKDSWINSLVSPTGKVGYVNISTGPISAAGEEKAIVPIKTAIALVRDMGGNSLKYFPMKGLAHEEEYRAVAKACAEEGFALEPTGGIDKENFETIVRIALEANVEQVIPHVYSSIIDKETGNTKVEAVRELLAVVKKLVDQYA	soluble
MAHHHHHHMTDVDQWKCASFKQEEDHSEATDALLERINATAIPVLLRSTNSSLDDLVNELLALEKMARLGGDALSAKRLVVEILRIYRVHGDHEKMLDTLETLMRKRGQTKQSQGAMIAECGVLLTEGNLSREQRRIVLERVVHLTDSRIHVELEHVRFAIDLAKLMEDDGEKRAACDLLSGLHVETVTNMPRVEKLDALNRLIRLCLELEDYELARLVSRRINHRALSRPGALQAKLKYFELMREYFAQRRSYFHVARCWYETFLSETDETACVSALSSMAVHYLIAEHSSPKELEDHAECAAFSPATKFADRTAAIQGITTTLRKRLEENPQLQYLLEKFTSIELIRERVADDVEALCINHPQLAGFPERQALLRSRCSEHDLLVISRFYRRLRLVRLAELVGLTPQHTEEFLMMMVASRTLYAKIDRVDGLVVFEANKNANDVVTAWDEAVGRSVALLDKVSHLIVKERMLHNITLAQLQQSGATAS	not soluble
KTNRRSETNIIRFNNSIFSAAVDYLNEMYNKQLGSICEPLINAYADVEQESPRNKQQGYVKVEFLEPDEEHDYTEQTLISLGMEVEHLLQSGVKLNDIAILVRKNKSIPRIADYFDKQLNYKIVSDEAFRLDASLAICMMLDALRYLSDPENRIVKAQLATNYQLQILHSEYDLNSLLLHKAEELFPPAFLERMAELRLMPLYELLEELFSLFELHRIEQQDAYLFAFFDAVTDYLQSHSSDPDSFIRYWNETLSGKTIPSGEVEGIRIFSIHKSKGLEFHTVLLPFCDWKLENETNNQLVWCVPQEAPFNELDIVPVNYSSAMAESVYRTDYLHERLQLWVDNLNLLYVAFTRAGKNLIIWSRKGQRNTMA	not soluble
